Source: US20060257492A1, “Suspension of calcium phosphate particulates for local delivery of therapeutic agents” (DePuy Products, Inc., priority 2005, published 2006)

Legend:
[1] = Osteocalcin adsorption, elution and dissolution test on biomimetic apatite (HPLC); type: physicochemical; conditions: 20 μg protein
Description: The test with osteocalcin was conducted by incubating biomimetic apatite prepared on Ti6Al4V substrates with phosphate buffered saline (PBS) containing 0.1 mg/mL (bovine serum albumin) BSA. […] Eighty five percent of the original protein (20 μg) is adsorbed by biomimetic apatite crystals within 3 hours of test. An elution test was designed to further test the affinity of biomimetic apatite to osteocalcin in PBS containing 0.1 mg/mL BSA was measured (FIG. 6). Only ˜6% of the originally applied protein (20 μg) was eluted out from the biomimetic apatite crystals after 20 hours of incubation.

[2] = TGF-β1 adsorption, elution and dissolution test on biomimetic apatite (HPLC); type: physicochemical
Description: A parallel study was designed for testing the interaction between biomimetic apatite mineral with TGF-β1 by using a sodium acetate buffer containing 0.1 mg/mL BSA. […] Fifty five percent of growth factor (20 μg) was adsorbed by biomimetic apatite crystallites after 4 hours. Ten percent additional protein was adsorbed in the next 20 hour.

| Substance | originally applied protein eluted out from the biomimetic apatite crystals ([1]; PBS containing 0.1 mg/mL BSA, after 20 hours of incubation) [%] | original protein adsorbed by biomimetic apatite crystals ([1]; PBS containing 0.1 mg/mL BSA, within 3 hours) | protein recovered after dissolution of the minerals in acid ([1]; minerals fully dissolved in acid) [%] | growth factor adsorbed by biomimetic apatite crystallites ([2]; 20 μg, sodium acetate buffer containing 0.1 mg/mL BSA, after 4 hours) | elution and dissolution profiles ([2]; compared with osteocalcin) | additional protein adsorbed ([2]; sodium acetate buffer containing 0.1 mg/mL BSA, in the next 20 hour) |
| --- | --- | --- | --- | --- | --- | --- |
| osteocalcin (YLYQWLGAPVPYPDPLEPRREVCELNPDCDELADHIGFQEAYRRFYGPV; UniProt P02818 52-100, looked up) | ~6 | Eighty five | ~64 |  |  |  |
| transforming growth factor-beta-1 [TGF-β1] |  |  |  | Fifty five | very similar to those of osteocalcin | Ten |
